Consider 1 molecule from paper PMC10758295 (Cell reports, 2023).

The target of the test is CENP-A-H4 complex (UniProt P49450 1-140; P62805 1-103). Nature of the test: native gel or EMSA.
CENP-A-H4 complex, sequence (P49450 whole entry, one chain of several): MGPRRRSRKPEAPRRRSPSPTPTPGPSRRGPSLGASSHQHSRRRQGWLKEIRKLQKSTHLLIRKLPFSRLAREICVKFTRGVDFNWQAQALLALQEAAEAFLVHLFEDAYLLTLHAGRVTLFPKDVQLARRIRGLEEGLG

B1: His6-EWSR1 (natural protein)
chain: MASTDYSTYSQAAAQQGYSAYTAQPTQGYAQTTQAYGQQSYGTYGQPTDVSYTQAQTTATYGQTAYATSYGQPPTGYTTPTAPQAYSQPVQGYGTGAYDTTTATVTTTQASYAAQSAYGTQPAYPAYGQQPAATAPTRPQDGNKPTETSQPQSSTGGYNQPSLGYGQSNYSYPQVPGSYPMQPVTAPPSYPPTSYSSTQPTSYDQSSYSQQNTYGQPSSYGQQSSYGQQSSYGQQPPTSYPPQTGSYSQAPSQYSQQSSSYGQQSSFRQDHPSSMGVYGQESGGFSGPGENRSMSGPDNRGRGRGGFDRGGMSRGGRGGGRGGMGSAGERGGFNKPGGPMDEGPDLDLGPPVDPDEDSDNSAIYVQGLNDSVTLDDLADFFKQCGVVKMNKRTGQPMIHIYLDKETGKPKGDATVSYEDPPTAKAAVEWFDGKDFQGSKLKVSLARKKPPMNSMRGGLPPREGRGMPPPLRGGPGGPGGPGGPMGRMGGRGGDRGGFPPRGPRGSRGNPSGGGNVQHRAGDWQCPNPGCGNQNFAWRTECNQCKAPKPEGFLPPPFPPPGGDRGRGGPGGMRGGRGGLMDRGGPGGMFRGGRGGDRGGFRGGRGMDRGGFGGGRRGGPGGPPGPLMEQMGGRRGGRGGPGKMDKGEHRQERRDRPY
Take B1: the binding result is “binds”.
